Experimental data published in patent publication US20220267469A1.

Key:
[1] = target: Biotinylated human BSSL (human) (UniProt P19835); assay: flow cytometry displacement assay; 0.5 ug antibody, 1 ug b-hBSSL
[2] = target: Biotinylated human BSSL (human) (UniProt P19835); assay: flow cytometry displacement assay; 1.0 ug antibody, 1 ug b-hBSSL
[3] = target: Biotinylated human BSSL (human) (UniProt P19835); assay: flow cytometry displacement assay; 1.5 ug antibody, 1 ug b-hBSSL
[4] = target: Biotinylated human BSSL (human) (UniProt P19835); assay: flow cytometry displacement assay; 2.0 ug antibody, 1 ug b-hBSSL
[5] = target: Biotinylated human BSSL (human) (UniProt P19835); assay: flow cytometry displacement assay; 3.0 ug antibody, 1 ug b-hBSSL

Sequence of Biotinylated human BSSL (human) (P19835 other isoform, or with tags, fused parts or gaps): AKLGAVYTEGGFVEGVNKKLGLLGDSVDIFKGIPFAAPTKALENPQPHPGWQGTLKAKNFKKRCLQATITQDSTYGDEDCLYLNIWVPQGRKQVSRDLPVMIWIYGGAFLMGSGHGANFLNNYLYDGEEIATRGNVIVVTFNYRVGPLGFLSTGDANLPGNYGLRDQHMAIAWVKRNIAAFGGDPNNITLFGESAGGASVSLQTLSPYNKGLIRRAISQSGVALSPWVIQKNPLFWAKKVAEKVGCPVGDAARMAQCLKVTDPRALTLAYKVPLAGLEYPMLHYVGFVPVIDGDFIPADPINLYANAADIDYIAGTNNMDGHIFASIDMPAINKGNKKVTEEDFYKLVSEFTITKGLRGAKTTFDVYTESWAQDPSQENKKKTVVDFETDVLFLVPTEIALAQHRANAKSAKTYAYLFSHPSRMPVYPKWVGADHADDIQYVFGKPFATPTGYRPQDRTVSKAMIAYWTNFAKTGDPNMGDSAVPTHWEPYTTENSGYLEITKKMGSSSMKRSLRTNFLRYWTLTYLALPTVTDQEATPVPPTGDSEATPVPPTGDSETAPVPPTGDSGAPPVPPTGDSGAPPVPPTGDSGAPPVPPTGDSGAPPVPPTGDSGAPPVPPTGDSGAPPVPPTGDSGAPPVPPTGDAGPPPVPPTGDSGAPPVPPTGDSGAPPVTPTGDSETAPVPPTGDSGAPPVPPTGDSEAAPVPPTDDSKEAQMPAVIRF

anti-human alpha-synuclein mlgG1 (antibody)
percentage reduction of b-hBSSL binding to CD14+ monocytes [1]: -8%
percentage reduction of b-hBSSL binding to CD14+ monocytes [2]: -2%
percentage reduction of b-hBSSL binding to CD14+ monocytes [3]: -4%
percentage reduction of b-hBSSL binding to CD14+ monocytes [4]: -1%
percentage reduction of b-hBSSL binding to CD14+ monocytes [5]: -7%
